How the values were obtained:
[1] = target: C. difficile toxin A from strain Pitt 07 (ribotype 078) (Clostridium difficile strain Pitt 07); experiment: cell-based or functional assay
[2] = target: C. difficile toxin B from strain CCL678 (ribotype 027, BI/NAP1/027) (Clostridium difficile strain CCL678); experiment: cell-based or functional assay

Row | Substance | EC50, neutralization of supernatant cytotoxicity on T-84 cells [1] | EC50, neutralization of supernatant cytotoxicity on CHO-K1 cells [2]
1 | comparator human anti-toxin A monoclonal antibody CDA-1 | > 100 nM | 
2 | comparator human anti-toxin B monoclonal antibody CDB-1 |  | > 100 nM

From US20130202618A1
